From patent US5871739

Molecular target: β-crystallin (containing about 10% βA3 -crystallin)
Assay: ELISA of mouse sera in the same manner as in Experimental Example 2; anti-crystallin antibody titer, control group
Conditions: scale: dilution ratio

antibody titer: 500
Substance: sera of control mice given PBS (Experimental Example 5) (polyclonal serum or antibody)
